Results: publication PMC2783927

Assays:
[1] = molecular target: IL-17RC extracellular domain, C-terminally biotinylated (UniProt Q8NAC3); experiment: SPR
[2] = molecular target: IL-17RA extracellular domain, C-terminally biotinylated (human) (UniProt Q96F46); experiment: SPR
[3] = molecular target: IL-17F homodimer (for binding experiments) (human) (UniProt Q96PD4); experiment: SEC
[4] = molecular target: IL-17RC-IL-17F complex, pre-assembled on the SPR chip (UniProt Q8NAC3); experiment: SPR
[5] = molecular target: IL-17RB-IL-25 complex, pre-assembled on the SPR chip (UniProt Q9NRM6); experiment: SPR
Sequence of UniProt Q9NRM6 (Q9NRM6 18-292, chain 1 of 2): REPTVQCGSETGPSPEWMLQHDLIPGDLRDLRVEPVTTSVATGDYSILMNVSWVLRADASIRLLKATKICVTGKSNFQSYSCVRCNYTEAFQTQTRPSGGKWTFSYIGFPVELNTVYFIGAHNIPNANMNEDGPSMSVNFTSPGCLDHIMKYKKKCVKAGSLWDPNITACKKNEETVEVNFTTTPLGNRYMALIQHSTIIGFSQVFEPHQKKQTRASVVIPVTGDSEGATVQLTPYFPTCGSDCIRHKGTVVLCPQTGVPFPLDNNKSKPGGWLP
Sequence of UniProt Q9NRM6 (Q9H293 33-177, chain 2 of 2, further chain): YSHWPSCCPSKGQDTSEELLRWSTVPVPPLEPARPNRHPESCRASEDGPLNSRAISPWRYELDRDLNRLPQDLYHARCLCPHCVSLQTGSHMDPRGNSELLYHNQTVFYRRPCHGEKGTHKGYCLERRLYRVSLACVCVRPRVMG

[6] = molecular target: IL-17RC-IL-17A complex, pre-assembled on the SPR chip (UniProt Q8NAC3); experiment: SPR
[7] = molecular target: T1, IL-17F homodimer (crystallised form: tag cleaved, lysine-methylated) (human), Q96PD4; experiment: SDS-PAGE; details: remark: other sources report otherwise
T1 chain: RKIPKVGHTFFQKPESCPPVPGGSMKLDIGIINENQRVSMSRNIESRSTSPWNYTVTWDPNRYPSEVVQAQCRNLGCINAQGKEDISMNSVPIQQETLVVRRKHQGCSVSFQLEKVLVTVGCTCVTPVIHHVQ

[8] = molecular target: T1, IL-17F homodimer (crystallised form: …); experiment: crystal structure; details: remark: other sources report otherwise

With “IL-17A homodimer (from UniProt Q16552 24-155) (ligand)” as the molecule, how does the Kd [1] read?
The Kd was 1.2 nM.

What about the Kd [2] of the same molecule?
The Kd was 2.8 nM.

What does the source list for “IL-17F homodimer (for binding experiments) (from UniProt Q96PD4 31-163) (ligand)”?
Kd [1]: 4.4 nM; Kd [2]: 292 nM

Which stoichiometry N (receptor per IL-17 dimer) [3] does the source give for “IL-17RA extracellular domain, soluble (without BirA ligase tag) (receptor)” here?
Its stoichiometry N (receptor per IL-17 dimer) is 1.

What about the stoichiometry N (receptors per IL-17 dimer) [3] of the same molecule?
The stoichiometry N (receptors per IL-17 dimer) was 2.

And the Kd [4]?
The Kd was 23.8 µM.

And the Kd [5]?
The Kd was 14.1 µM.

What about the Kd [6] of the same molecule?
The Kd was 0.162 µM.

B1: IL-17RC extracellular domain, soluble (without BirA ligase tag) (receptor)
chain: LERLVGPQDATHCSPVSLEPWGDEERLRVQFLAQQSLSLAPVTAATARTALSGLSGADGRREERGRGKSWVCLSLGGSGNTEPQKKGLSCRLWDSDILCLPGDIVPAPGPVLAPTHLQTELVLRCQKETDCDLCLRVAVHLAVHGHWEEPEDEEKFGGAADSGVEEPRNASLQAQVVLSFQAYPTARCVLLEVQVPAALVQFGQSVGSVVYDCFEAALGSEVRIWSYTQPRYEKELNHTQQLPDCRGLEVWNSIPSCWALPWLNVSADGDNVHLVLNVSEEQHFGLSLYWNQVQGPPKPRWHKNLTGPQIITLNHTDLVPCLCIQVWPLEPDSVRTNICPFREDPRAHQNLWQAARLQLLTLQSWLLDAPCSLPAEAALCWRAPGGDPCQPLVPPLSWENVTVDKVLEFPLLKGHPNLCVQVNSSEKLQLQECLWADSLGPLKDDVLLLETRGPQDNRSLCALEPSGCTSLPSKASTRAARLGEYLLQDLQSGQCLQLWDDDLGALWACPMDKYIHKR
B1 was tested. Which Kd [6] did it give?
The Kd was 8 µM.

B2: IL-17F homodimer (crystallised form: tag cleaved, lysine-methylated), Q96PD4 31-163 (ligand)
chain: RKIPKVGHTFFQKPESCPPVPGGSMKLDIGIINENQRVSMSRNIESRSTSPWNYTVTWDPNRYPSEVVQAQCRNLGCINAQGKEDISMNSVPIQQETLVVRRKHQGCSVSFQLEKVLVTVGCTCVTPVIHHVQ
modifications: here or on the partner: reductive lysine methylation of the complex; reductive lysine methylation of the complex
What does the source list for B2?
stoichiometry N [7]: 2; stoichiometry N [8]: 2
